One data set concerns the target T1, Flag-Aub WT (Drosophila melanogaster, UniProt O76922 1-866).
T1 sequence: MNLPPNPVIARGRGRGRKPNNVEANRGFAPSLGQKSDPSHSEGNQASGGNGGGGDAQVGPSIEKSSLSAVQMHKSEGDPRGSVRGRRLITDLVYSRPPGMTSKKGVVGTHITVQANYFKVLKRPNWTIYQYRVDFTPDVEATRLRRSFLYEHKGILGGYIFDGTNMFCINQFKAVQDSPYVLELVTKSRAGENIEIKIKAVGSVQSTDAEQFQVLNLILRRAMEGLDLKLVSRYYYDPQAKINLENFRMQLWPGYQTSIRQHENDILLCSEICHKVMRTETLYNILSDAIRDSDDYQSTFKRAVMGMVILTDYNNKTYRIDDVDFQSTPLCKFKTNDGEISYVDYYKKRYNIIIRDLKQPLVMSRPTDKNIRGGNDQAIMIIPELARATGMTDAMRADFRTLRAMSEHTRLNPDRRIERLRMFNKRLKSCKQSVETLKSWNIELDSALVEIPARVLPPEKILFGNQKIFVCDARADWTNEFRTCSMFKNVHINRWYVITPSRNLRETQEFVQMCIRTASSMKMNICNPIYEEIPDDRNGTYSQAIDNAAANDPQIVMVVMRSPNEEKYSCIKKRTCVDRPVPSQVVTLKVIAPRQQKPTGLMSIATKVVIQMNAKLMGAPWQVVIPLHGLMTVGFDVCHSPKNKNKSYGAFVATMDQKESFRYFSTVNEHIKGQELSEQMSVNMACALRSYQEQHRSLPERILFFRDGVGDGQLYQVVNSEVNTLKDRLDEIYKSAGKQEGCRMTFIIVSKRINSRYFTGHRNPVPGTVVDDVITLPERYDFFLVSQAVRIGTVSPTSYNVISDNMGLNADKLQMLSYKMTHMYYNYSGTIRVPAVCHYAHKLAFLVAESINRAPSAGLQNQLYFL
Description: UV crosslinking.

Another data set concerns the target T2, Flag-Aub mutant (M) (Drosophila melanogaster, UniProt O76922 1-866, R11K;R13K;R15K;R17K).
T2 sequence: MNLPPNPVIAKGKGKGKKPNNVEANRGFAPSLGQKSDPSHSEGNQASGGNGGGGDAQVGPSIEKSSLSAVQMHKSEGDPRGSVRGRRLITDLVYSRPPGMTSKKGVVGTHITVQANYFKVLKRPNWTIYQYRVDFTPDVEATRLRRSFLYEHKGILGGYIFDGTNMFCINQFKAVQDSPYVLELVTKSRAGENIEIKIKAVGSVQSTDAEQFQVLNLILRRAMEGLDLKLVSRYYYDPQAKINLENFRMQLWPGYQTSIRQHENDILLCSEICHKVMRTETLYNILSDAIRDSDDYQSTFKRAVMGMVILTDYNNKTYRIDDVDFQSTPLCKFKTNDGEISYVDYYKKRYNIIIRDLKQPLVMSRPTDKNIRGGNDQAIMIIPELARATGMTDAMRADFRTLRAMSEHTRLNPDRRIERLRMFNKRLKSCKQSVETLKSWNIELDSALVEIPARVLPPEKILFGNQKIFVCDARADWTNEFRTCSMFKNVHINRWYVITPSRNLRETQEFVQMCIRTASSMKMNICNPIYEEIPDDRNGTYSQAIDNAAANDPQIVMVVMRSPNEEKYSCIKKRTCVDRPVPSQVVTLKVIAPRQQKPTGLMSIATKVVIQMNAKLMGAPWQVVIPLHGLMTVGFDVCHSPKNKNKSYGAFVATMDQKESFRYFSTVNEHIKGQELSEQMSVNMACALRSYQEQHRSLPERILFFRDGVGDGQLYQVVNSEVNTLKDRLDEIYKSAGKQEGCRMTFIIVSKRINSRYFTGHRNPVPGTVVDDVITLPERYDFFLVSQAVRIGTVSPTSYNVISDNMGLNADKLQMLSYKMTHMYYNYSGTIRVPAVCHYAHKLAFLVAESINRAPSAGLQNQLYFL
Put plainly: UV crosslinking.

As for UGACAUGAACACAGGUGCUCAGAUAGCUUU (ssRNA, 4-thio-uridine (s4U) at position 1) [synthetic piRNA with s4U at position 1], the binding result with Flag-Aub WT and in the data set with Flag-Aub mutant (M) was “binds” throughout.

The values above are taken from publication PMC2746449.
